The source of these data is publication doi:10.1101/2024.08.01.606258.

As a reminder, the stoichiometry N is a count of units in the complex or per binding partner.

In the test the target is avGFP [GFP: P42212]. Put plainly: SEC. In general terms: Size exclusion chromatography separates by hydrodynamic size, large species first.

As to “avGFP (from UniProt P42212 1-237) (natural protein)”, the stoichiometry N stood at 2.
